Here are results for one molecule from patent US20220018842A1 (FUKUSHIMA MEDICAL UNIVERSITY, published 2022).

The target of assay [1] is T1, antigen peptide having the amino acid sequence from the 208th position to the 220th position of the human … (human).
T1 construct: Coupled to KLH for immunisation
T1 peptide: SRGPSEYPTKNYV
Kind of assay: ELISA of hybridoma culture supernatant on coated antigen peptide. Here is the method:
After 4 days of culture, the medium was exchanged with 100 μL of hybridoma medium. Positive clones were screened by ELISA using 50 μL of the culture supernatant 2 days after the exchange. The screening was performed by the following procedure.
First, the antigen peptide solution was diluted to 3 μg/mL, 100 μL was added to each well of a 96-well ELISA plate, and the mixture was allowed to stand overnight at 37° C. Then, the antigen peptide solution was removed from each well, the wells were washed with 200 μL of PBS, then a blocking solution (1% bovine serum albumin/PBS) was added, and the mixture was allowed to stand at 37° C. for 1 hour. Then, the blocking solution was removed from each well, the wells washed with 200 μL of PBS, 50 μL of culture supernatant was added, and the mixture was reacted at 37° C. for 1 hour. After removing the culture supernatant from each well, the wells were washed 3 times with 200 μL of PBS. […] After that, the secondary antibody solution was removed from each well, the wells were washed 3 times with PBS, and then the color was developed using TMB Substrate Set (BioLegend) with the method recommended by the manufacturer, and the absorbance was measured.

Assay [2] addresses T2, CLDN5 (UniProt O00501 1-218, limits assumed).
T2 construct: whole, on cells; also called claudin 5
T2 sequence (looked up): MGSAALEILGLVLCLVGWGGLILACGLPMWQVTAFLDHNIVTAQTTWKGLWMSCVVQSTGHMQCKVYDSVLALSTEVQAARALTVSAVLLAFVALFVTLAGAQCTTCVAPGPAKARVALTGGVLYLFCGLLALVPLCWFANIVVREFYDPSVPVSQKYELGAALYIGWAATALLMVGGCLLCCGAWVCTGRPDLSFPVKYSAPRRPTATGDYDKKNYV
Kind of assay: Western blot of extract of HEK293T cells expressing the claudin; undiluted culture supernatant. Here is the method:
(§1) 48 hours after the introduction of each gene, protein was extracted using a lysate in which the proteolytic enzyme inhibitor, Complete mini EDTA-free (Roche Diagnostics) was added to CelLytic™ MT Cell Lysis Reagent (Sigma-Aldrich) at a concentration of […]. SDS-PAGE, […], and antibody reaction were sequentially performed according to a standard protocol, chemiluminescence was performed by ECL™ Prime Western Blotting Detection reagent (GE Healthcare), and images were taken using CCD imager Image Quant LAS4000 (GE Healthcare). The primary antibody was reacted overnight at 4° C. using a culture supernatant stock solution of αCLDN6 #C6C15-1, and the secondary antibodies were reacted for 30 minutes using ECL™ Rat IgG, HRP-linked whole antibody (Sigma-Aldrich) diluted 2,000-fold with PBS, and ECL™ Rabbit IgG and HRP-linked whole antibody (Sigma-Aldrich) described in Table 1 diluted 5,000-fold with PBS, respectively.
(§2) In order to confirm the antigen specificity and cross-reactivity of the anti-CLDN6 monoclonal antibody (αCLDN6 #C6C15-1) produced in the Examples, Western blotting was performed for CLDN1, CLDN4, CLDN5, CLDN6, and CLDN9 for verification.

The target of assay [3] is T3, CLDN1 (UniProt O95832 1-211, limits assumed).
T3 construct: whole, on cells; also called claudin 1
T3 sequence (looked up): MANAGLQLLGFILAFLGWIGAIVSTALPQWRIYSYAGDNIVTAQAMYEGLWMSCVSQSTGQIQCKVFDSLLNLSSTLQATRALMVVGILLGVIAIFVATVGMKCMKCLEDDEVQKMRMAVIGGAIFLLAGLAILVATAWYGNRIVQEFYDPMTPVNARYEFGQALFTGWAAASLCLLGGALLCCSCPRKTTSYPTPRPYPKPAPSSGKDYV
The assay is described as above. Here is the method: as §1, §2

In assay [4] the target is T4, CLDN9 (UniProt O95484 1-217, limits assumed).
T4 construct: whole, on cells; also called claudin 9
T4 sequence (looked up): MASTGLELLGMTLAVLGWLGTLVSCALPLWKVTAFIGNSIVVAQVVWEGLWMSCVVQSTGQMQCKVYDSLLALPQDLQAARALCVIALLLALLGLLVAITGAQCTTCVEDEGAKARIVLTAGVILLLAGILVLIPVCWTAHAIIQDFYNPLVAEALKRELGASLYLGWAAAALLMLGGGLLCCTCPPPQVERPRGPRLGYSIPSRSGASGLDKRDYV
The assay is described as above. Here is the method:
as §1, §2

The target in assay [5] is T5, CLDN4 (UniProt O14493 1-209, limits assumed).
T5 construct: whole, on cells; also called claudin 4
T5 sequence (looked up): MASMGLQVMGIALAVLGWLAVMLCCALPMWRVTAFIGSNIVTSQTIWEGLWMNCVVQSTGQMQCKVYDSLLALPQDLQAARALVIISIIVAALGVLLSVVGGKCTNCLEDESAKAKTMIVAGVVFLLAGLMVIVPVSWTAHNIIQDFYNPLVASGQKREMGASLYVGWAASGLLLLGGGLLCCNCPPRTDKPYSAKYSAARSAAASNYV
The description is as above. Here is the method:
as §1, §2

In assay [6] the target is T6, claudin 6 (CLDN6) protein (human, UniProt P56747 1-220).
T6 construct: also called human CLDN6 protein
T6 sequence: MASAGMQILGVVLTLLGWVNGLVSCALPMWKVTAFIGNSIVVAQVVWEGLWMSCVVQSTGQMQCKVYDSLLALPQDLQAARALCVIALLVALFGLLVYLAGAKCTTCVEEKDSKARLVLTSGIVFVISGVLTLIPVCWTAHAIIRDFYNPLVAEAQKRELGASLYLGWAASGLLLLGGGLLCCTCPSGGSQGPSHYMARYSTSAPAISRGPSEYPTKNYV
Kind of assay: Western blot of extract of HEK293T cells expressing CLDN6. A general note: Immunoblotting shows a protein as a band on a membrane.

B1: Rat αCLDN6 #C6C15-1 monoclonal antibody (antibody, V domains shown)
VH: EVKLVETGGGLVKPGGSLRLSCATSGFNFNDYFMNWVRQAPGKGLEWVAQIRNKNYNYATYYAESLEGRVTISRDDSKSSVYLQVSSLRAEDTAIYYCTRGAYWGQGVMVTVSS
VL: DIVMTQSPSFLSASVGERVTLSCRASQNINKYLDWYQQKLGEAPKLLIYDTNNLHAGIPSRFSGSGSGTDYTLTISSLQPEDVATYFCLQRNSWPYTFGAGTKLELK
notes: Rat hybridoma monoclonal antibody (detected with anti-rat IgG), used as undiluted culture supernatant; constant regions and isotype are not; also called αCLDN6 #C6C15-1 antibody; ACLDN6 #C6C15-1 antibody
For the molecule B1, the binding result in assay [1] is recorded as “binds”; in assay [2] it was “no binding”; in assay [3], “no binding”; in assay [4], “no binding”; in assay [5], “no binding”; in assay [6], “binds”.
